B1: library; numbered along this chain (parent)
chain: MAAAAAAAAEQQSSNGPVKKSMREKAVERRSVNKEHNSNFKAGYIPIDEDRLHKTGLRGRKGNLAICVIILLFILAVINLIITLVIWAVIRIGPNGCDSMEFHESGLLRFKQVSDMGVIHPLYKSTVGGRRNENLVITGNNQPIVFQQGTTKLSVENNKTSITSDIGMQFFDPRTQNILFSTDYETHEFHLPSGVKSLNVQKASTERITSNATSDLNIKVDGRAIVRGNEGVFIMGKTIEFHMGGNMELKAENSIILNGSVMVSTTRLPSSSSGDQLGSGDWVRYKLCMCADGTLFKVQVTSQNMGCQISDNPCGNTH

Variants of: B1
Experiment: SGCB cell-surface expression functional score (HA stain, bin4 vs bin1, normalised to synonymous) (log10 ratio); higher = more cell-surface SGCB (functional)
How it was run: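 The functional score is a log ratio of variant frequency in the highest versus the lowest intensity bin, expressed as a median over codons and duplicate transductions. Codon-saturation libraries of HA-tagged, YFP-fused human beta-sarcoglycan were transduced by lentivirus at MOI <0.1 into HEK293 cells stably expressing alpha-, gamma- and delta-sarcoglycan, and the cells were stained on ice with Alexa Fluor 647 anti-HA, fixed and sorted into four 5% intensity bins before amplicon sequencing. Synonymous variants were scaled to mean 0, SD 0.5 within each section.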

First: MAAAAAAAAEQQSSNGPVKKSMREKAVERRSVNKEHNSNFKAGYIPIDEDRLHKTGLRGRKGNLAICVIILLFILAVINLIITLVIWAVIRIGPNGCDSMEFHESGLLRFKQVSDMGVIHPLYKSTVGGRRNENLVITGNNQPIVFQQGTTKLSVENNKTSITSDIGMQFFDPRTQNILFSTDYETHEFHLPSGVKSLNVQKASTERITSNATSDLNIKVDGRAIVRGNEGVFIMGKTIEFHMGGNMELKAENSIILNGSVMVSTTRLPSSLSGDQLGSGDWVRYKLCMCADGTLFKVQVTSQNMGCQISDNPCGNTH [S272L]
Second: MAAAAAAAAEQQSSNGPVKKSMREKAVERRSVNKEHNSNFKAGYIPIDEDRLHKTGLRGRKGNLAICVIILLFILAVINLIITLVIWAVIRIGPNGCDSMEFHESGLLRFKQVSDMGVIHPLYKSTVGGRRNENLVITGNNQPIVFQQGTTKLSVENNKTSITSDIGMQFFDPRTQNILFSTDYETHEFHLPSGVKSLNVQKASTERITSNATSDLNIKVDGRAIVRGNEGVFIMGKTIEFHMGGNMELKAENSIILNGSVMVSTTRLPSSMSGDQLGSGDWVRYKLCMCADGTLFKVQVTSQNMGCQISDNPCGNTH [S272M]
The “SGCB cell-surface expression functional score (log10)” value of the first is higher: 0.07 for the first, -1.59 for the second.

MAAAAAAAAEQQSSNGPVKKSMREKAVERRSVNKEHNSNFKAGYIPIDEDRLHKTGLRGRKGNLAICVIILLFILAVINLIITLVIWAVIRIGPNGCDSMEFHESGLLRFKQVSDMGVIHPLYKSTVGGRRNENLVITGNNQPIVFQQGTTKLSVENNKTSITSDIGMQFFDPRTQNILFSTDYETHEFHLPSGVKSLNVQKASTERITSNATSDLNIKVDGRAIVRGNEGVFIMGKTIEFHMGGNMELKAENSIILNGSVMVSTTRLPSSNSGDQLGSGDWVRYKLCMCADGTLFKVQVTSQNMGCQISDNPCGNTH [S272N] and MAAAAAAAAEQQSSNGPVKKSMREKAVERRSVNKEHNSNFKAGYIPIDEDRLHKTGLRGRKGNLAICVIILLFILAVINLIITLVIWAVIRIGPNGCDSMEFHESGLLRFKQVSDMGVIHPLYKSTVGGRRNENLVITGNNQPIVFQQGTTKLSVENNKTSITSDIGMQFFDPRTQNILFSTDYETHEFHLPSGVKSLNVQKASTERITSNATSDLNIKVDGRAIVRGNEGVFIMGKTIEFHMGGNMELKAENSIILNGSVMVSTTRLPSSHSGDQLGSGDWVRYKLCMCADGTLFKVQVTSQNMGCQISDNPCGNTH [S272H] are within 0.2 log units of each other in “SGCB cell-surface expression functional score (log10)” value: 0.08 for the first, -0.05 for the second.

MAAAAAAAAEQQSSNGPVKKSMREKAVERRSVNKEHNSNFKAGYIPIDEDRLHKTGLRGRKGNLAICVIILLFILAVINLIITLVIWAVIRIGPNGCDSMEFHESGLLRFKQVSDMGVIHPLYKSTVGGRRNENLVITGNNQPIVFQQGTTKLSVENNKTSITSDIGMQFFDPRTQNILFSTDYETHEFHLPSGVKSLNVQKASTERITSNATSDLNIKVDGRAIVRGNEGVFIMGKTIEFHMGGNMELKAENSIILNGSVMVSTTRLPSSPSGDQLGSGDWVRYKLCMCADGTLFKVQVTSQNMGCQISDNPCGNTH [S272P] and MAAAAAAAAEQQSSNGPVKKSMREKAVERRSVNKEHNSNFKAGYIPIDEDRLHKTGLRGRKGNLAICVIILLFILAVINLIITLVIWAVIRIGPNGCDSMEFHESGLLRFKQVSDMGVIHPLYKSTVGGRRNENLVITGNNQPIVFQQGTTKLSVENNKTSITSDIGMQFFDPRTQNILFSTDYETHEFHLPSGVKSLNVQKASTERITSNATSDLNIKVDGRAIVRGNEGVFIMGKTIEFHMGGNMELKAENSIILNGSVMVSTTRLPSSRSGDQLGSGDWVRYKLCMCADGTLFKVQVTSQNMGCQISDNPCGNTH [S272R] are within 0.2 log units of each other in “SGCB cell-surface expression functional score (log10)” value: 0.21 for the first, 0.18 for the second.

Going from MAAAAAAAAEQQSSNGPVKKSMREKAVERRSVNKEHNSNFKAGYIPIDEDRLHKTGLRGRKGNLAICVIILLFILAVINLIITLVIWAVIRIGPNGCDSMEFHESGLLRFKQVSDMGVIHPLYKSTVGGRRNENLVITGNNQPIVFQQGTTKLSVENNKTSITSDIGMQFFDPRTQNILFSTDYETHEFHLPSGVKSLNVQKASTERITSNATSDLNIKVDGRAIVRGNEGVFIMGKTIEFHMGGNMELKAENSIILNGSVMVSTTRLPSSTSGDQLGSGDWVRYKLCMCADGTLFKVQVTSQNMGCQISDNPCGNTH [S272T] to MAAAAAAAAEQQSSNGPVKKSMREKAVERRSVNKEHNSNFKAGYIPIDEDRLHKTGLRGRKGNLAICVIILLFILAVINLIITLVIWAVIRIGPNGCDSMEFHESGLLRFKQVSDMGVIHPLYKSTVGGRRNENLVITGNNQPIVFQQGTTKLSVENNKTSITSDIGMQFFDPRTQNILFSTDYETHEFHLPSGVKSLNVQKASTERITSNATSDLNIKVDGRAIVRGNEGVFIMGKTIEFHMGGNMELKAENSIILNGSVMVSTTRLPSSQSGDQLGSGDWVRYKLCMCADGTLFKVQVTSQNMGCQISDNPCGNTH [S272Q], the “SGCB cell-surface expression functional score (log10)” value rises from -0.52 to 0.34.

Going from MAAAAAAAAEQQSSNGPVKKSMREKAVERRSVNKEHNSNFKAGYIPIDEDRLHKTGLRGRKGNLAICVIILLFILAVINLIITLVIWAVIRIGPNGCDSMEFHESGLLRFKQVSDMGVIHPLYKSTVGGRRNENLVITGNNQPIVFQQGTTKLSVENNKTSITSDIGMQFFDPRTQNILFSTDYETHEFHLPSGVKSLNVQKASTERITSNATSDLNIKVDGRAIVRGNEGVFIMGKTIEFHMGGNMELKAENSIILNGSVMVSTTRLPSSKSGDQLGSGDWVRYKLCMCADGTLFKVQVTSQNMGCQISDNPCGNTH [S272K] to MAAAAAAAAEQQSSNGPVKKSMREKAVERRSVNKEHNSNFKAGYIPIDEDRLHKTGLRGRKGNLAICVIILLFILAVINLIITLVIWAVIRIGPNGCDSMEFHESGLLRFKQVSDMGVIHPLYKSTVGGRRNENLVITGNNQPIVFQQGTTKLSVENNKTSITSDIGMQFFDPRTQNILFSTDYETHEFHLPSGVKSLNVQKASTERITSNATSDLNIKVDGRAIVRGNEGVFIMGKTIEFHMGGNMELKAENSIILNGSVMVSTTRLPSSISGDQLGSGDWVRYKLCMCADGTLFKVQVTSQNMGCQISDNPCGNTH [S272I], the “SGCB cell-surface expression functional score (log10)” value rises from 0.11 to 0.34.

From the supplement of paper PMC10266784
